These results are taken from patent US20220144957A1 (IMMUNECENT BIOTECHNOLOGY, published 2022).

Where a chain is given by its changes, count along the chain named. Names and notes keep the numbering of the source. Like-named read-outs stand apart in the source and are kept apart here.

What is called EC50 is the concentration that produces a half-maximal response. In general, Kd refers to the free concentration of one partner at which half of the binding sites on the other are occupied at equilibrium, for simple one-to-one binding. As a reminder, the koff is a measure of how fast the partners let go of each other. The low end stands for a long-lived complex, the high end for a short-lived complex. The term kon denotes the second-order rate constant of association. Low readings indicate slow association, high ones fast association. The term EC50 (read off the curve) denotes the concentration giving half of the maximal effect. Read a low EC50 (read off the curve) as higher potency in that assay.

For assay [1], the target named is T1, human IFNAR1, full length (IFNAR1-aa1-557) (human) (UniProt P17181).
T1 sequence (looked up): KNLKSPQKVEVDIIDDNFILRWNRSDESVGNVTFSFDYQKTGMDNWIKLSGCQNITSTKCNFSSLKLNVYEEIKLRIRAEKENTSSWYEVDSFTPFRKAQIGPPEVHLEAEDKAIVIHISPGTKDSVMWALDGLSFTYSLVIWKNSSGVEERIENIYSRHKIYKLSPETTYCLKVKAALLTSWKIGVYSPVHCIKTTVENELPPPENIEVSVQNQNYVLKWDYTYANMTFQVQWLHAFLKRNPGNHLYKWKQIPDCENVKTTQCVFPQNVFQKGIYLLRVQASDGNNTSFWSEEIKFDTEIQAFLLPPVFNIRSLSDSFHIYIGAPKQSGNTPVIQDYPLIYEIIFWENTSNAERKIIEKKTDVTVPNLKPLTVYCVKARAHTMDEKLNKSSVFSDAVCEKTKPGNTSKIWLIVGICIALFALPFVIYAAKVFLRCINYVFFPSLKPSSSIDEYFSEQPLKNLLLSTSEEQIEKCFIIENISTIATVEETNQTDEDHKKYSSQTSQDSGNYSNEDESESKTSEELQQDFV
The assay is described as follows: cell-based or functional assay.

For assay [2], the target named is T1, human IFNAR1, full length (IFNAR1-aa1-557) (human). Description: cell-based or functional assay. This is another data set of the same source.
The next assay deals with T2, human IFNAR1 ECD (human, UniProt P17181 28-436).
T2 construct: extracellular domain; Coated on ELISA plates at 5 ug/ml
T2 sequence (looked up): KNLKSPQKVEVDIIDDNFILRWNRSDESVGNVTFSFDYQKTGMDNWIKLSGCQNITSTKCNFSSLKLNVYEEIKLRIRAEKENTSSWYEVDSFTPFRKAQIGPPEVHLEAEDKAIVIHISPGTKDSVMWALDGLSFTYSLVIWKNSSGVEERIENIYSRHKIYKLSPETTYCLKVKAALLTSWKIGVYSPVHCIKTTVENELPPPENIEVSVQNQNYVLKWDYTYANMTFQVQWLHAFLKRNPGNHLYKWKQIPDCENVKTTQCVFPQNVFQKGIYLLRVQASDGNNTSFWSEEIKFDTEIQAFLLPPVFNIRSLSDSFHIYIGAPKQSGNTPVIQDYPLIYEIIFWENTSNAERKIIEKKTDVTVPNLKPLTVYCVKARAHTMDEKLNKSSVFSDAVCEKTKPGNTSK
Description: ELISA, plate coated with human IFNAR1 ECD, anti-human IgG Fc-peroxidase, OD450. (An ELISA detects its analyte on a solid surface through an enzyme-linked reagent.)

The target in the next assay is T3, Human IFNAR1 SD1-SD4 (human, UniProt P17181 28-436, limits assumed).
T3 construct: domain: SD1-SD4; Antigen injected in the Biacore assay
T3 sequence (looked up): T2 sequence (looked up)
The assay is described as follows: SPR (Biacore 8K), antibody captured on anti-human IgG Fc, antigen injected. A general note: SPR reads the build-up and loss of mass on a sensor chip optically.

The target of assay [3] is T4, human IFNAR1, full length (IFNAR1-aa1-557) (human, UniProt P17181 28-557).
T4 construct: whole, on cells; Overexpressed on HEK293T cells from pIRES2-EGFP-IFNAR1; also used here for the human IFNAR1 of the IFN-I reporter cells and the cells of the virus assays; also called IFNAR1-WT; wild type IFNAR1
T4 sequence (looked up): T1 sequence (looked up)
The assay is described as follows: flow cytometry on cells expressing human IFNAR1, MFI of PE. For orientation: A flow cytometer gives signals particle by particle.

Assay [4] deals with T4, human IFNAR1, full length …. Described as above. The source holds these as a separate data set.

Description for Human IFNAR1 SD1-SD4: Preparation of a CM5 chip surface: Using HBS-EP+ (10 mM HEPES, 150 mM NaCl, 3 mM EDTA, 0.05% surfactant P20) as running buffer, both channel 1&2 of a CM5 sensor chip (GE Healthcare, BR-1000-30) were activated with a fresh mixture of 50 mM NHS and 200 mM EDC (1:1). Anti-human IgG Fc, 20 μg/ml in 10 mM NaOAc buffer (pH 5.0), was then passed over the activated surface of the two flow cells in each channel at 10 l/min (target around 10000 RU). […] Low flow rate was maintained over 2 hours for the equilibrium of the immobilized protein.
Measurement of binding kinetics: Each antibody was captured in flow cell FC2 in channel 1&2 around 250 RU respectively, using FC1 as the reference cell, followed by injection of antigen samples at varying concentrations. The signals with captured antibody subtracted from that without captured antibody were calculated with Biacore 8K evaluation software. The running buffer was HBS-EP+(10 mM HEPES, 150 mM NaCl, 3 mM EDTA, 0.05% surfactant P20).
Description for human IFNAR1 ECD: 96-well plates were coated with 100ul 5 ug/ml human IFNAR1 ECD in 1×PBS and incubate at 4° C. overnight. The plates were then washed with PBST (1×PBS+0.05% Tween20) for 3 times and blocked with the blocking buffer (1×PBS+0.05% Tween20+1% BSA) at RT for 2 hr. […] The plates were washed with PBST for 3 times, followed by addition of antibody (Anti-Human IgG (Fc specific)-Peroxidase antibody produced in goat, ZSGB-BIO) at 100ul/well and then incubated at RT for 1 hr. The plates were washed with PBST 5 times and then 100ul/well TMB was added and after 15 minutes, the plates were quenched with 50ul/well 2N H₂SO₄. The plates were read with Molecular device spectra max at 450 nm.

The molecule “Human IFNω (from UniProt P05000 24-195) (ligand)” registered a percentage of GFP positive cells in IFN-I reporter cells, 50 pg/ml IFNω against Mock control in assay [1] greater than 5 fold.

Regarding “Human IFNβ (from UniProt P01574 22-187) (ligand)”, in assay [1], the percentage of GFP positive cells in IFN-I reporter cells, 50 pg/ml IFNβ against Mock control is greater than 5 fold.

B1: IFNAR1 monoclonal antibody 10C9 (antibody, from another filing, V domains shown)
VH: QIQLVQSGPELKKPGETVKISCKASGYTFTNYGVNWMKQAPGKGLKWMGWINTYTGEPTYADDFKGRFAFSLETSASTAYLQINNLKNEDTATYFCAREGVYYYGDWAWLAYWGQGTLVTVSA
VL: DIVMTQSQKFISTSVGDRVSVTCKASQNVGTNVAWYQQKPGQSPKTLIYSTSYRYNGVPDRFTGSGSGTDFTLTISNVQSEDLAEYFCQQYNSYYTFGGGTKLEIK
Turning to B1, in assay [2], the blocking effect on GFP expression induced by IFNα1 in IFN-I reporter cells (++ = greater than 80%) is greater than 80%, the blocking effect on GFP expression induced by IFNα2a in IFN-I reporter cells (++ = greater than 80%) is greater than 80%, the blocking effect on GFP expression induced by IFNα2b in IFN-I reporter cells (++ = greater than 80%) is greater than 80% and the blocking effect on GFP expression induced by IFNα4 in IFN-I reporter cells (++ = greater than 80%) is greater than 80%. In assay [2], this molecule had a blocking effect on GFP expression induced by IFNα5 in IFN-I reporter cells (++ = greater than 80%) greater than 80%, a blocking effect on GFP expression induced by IFNα6 in IFN-I reporter cells (++ = greater than 80%) greater than 80%, a blocking effect on GFP expression induced by IFNα7 in IFN-I reporter cells (++ = greater than 80%) greater than 80% and a blocking effect on GFP expression induced by IFNα8 in IFN-I reporter cells (++ = greater than 80%) greater than 80%. In assay [2], this molecule returned a blocking effect on GFP expression induced by IFNα10 in IFN-I reporter cells (++ = greater than 80%) greater than 80%, a blocking effect on GFP expression induced by IFNα14 in IFN-I reporter cells (++ = greater than 80%) greater than 80%, a blocking effect on GFP expression induced by IFNα16 in IFN-I reporter cells (++ = greater than 80%) greater than 80% and a blocking effect on GFP expression induced by IFNα17 in IFN-I reporter cells (++ = greater than 80%) greater than 80%. In addition, in assay [2], the blocking effect on GFP expression induced by IFNα21 in IFN-I reporter cells (++ = greater than 80%) was greater than 80% and the blocking effect on GFP expression induced by IFNω in IFN-I reporter cells (++ = greater than 80%) was greater than 80%.

B2: Hu4-14 (antibody, V domains shown)
VH: QVQLVQSGAEVKKPGASVKVSCKASGYTFTSYWMNWVRQAPGQGLEWMGKIDPSDSETHFNQKFRDRVTLTVDKSTSTVYMELSSLRSEDTAVYYCARGGRISFDYDAALDYWGQGTLVTVSS
VL: DIQMTQSPSSLSASVGDRVTITCKSSEVIYNRLAWYQQKPGNAPKLLISGATTLESGVPSRFSGSGSGKDYTLTISSLQPEDFATYYCQQYWNKPFTFGQGTKLEIK
notes: Humanized 7G4 variant
In the assay with human IFNAR1 ECD, B2 returned an EC50 of 2.27 ng/mL and a Top of 3.1 OD450. In the assay with Human IFNAR1 SD1-SD4, this molecule showed a Kd of 0.461 nM, a koff of 0.000214 s⁻¹ and a kon of 465000 M⁻¹ s⁻¹.

B3: Hu4-6-mut-3 (antibody, V domains shown)
VH: B2 VH with A108G
VL: B2 VL with N42K, S49Y, T53S, S56T
notes: Hu4-6 with A108G in VH and T53S and S56T in VL
For the molecule B3, the “EC50 (read off the curve)” value in assay [3] is roughly 0.06 µg/mL.

B4: Hu4-6-mut-1 (antibody, V domains shown)
VH: B2 VH with A108G
VL: B2 VL with N42K, S49Y
notes: Hu4-6 with A108G in VH (HCDR3)
With B4, the “EC50 (read off the curve)” value in assay [3] is roughly 0.07 µg/mL.

B5: Hu4-6-mut-2 (antibody, V domains shown)
VH: B2 VH
VL: B2 VL with N42K, S49Y, T53S, S56T
notes: Hu4-6 with T53S and S56T in VL (LCDR2)
For the molecule B5, the “EC50 (read off the curve)” value in assay [3] is roughly 0.06 µg/mL.

B6: Hu4-13 (antibody, V domains shown)
VH: B2 VH with L70M, V72R, K74T
VL: B2 VL
notes: Humanized 7G4 variant
Take B6: in the assay with human IFNAR1 ECD, the EC50 was found to be 3.27 ng/mL and the Top was found to be 3.4 OD450. Besides, in assay [4], the “EC50 (read off the curve)” value is roughly 0.04 µg/mL. In addition, in the assay with Human IFNAR1 SD1-SD4, the affinity, expressed as Kd, was 0.671 nM; the koff stood at 0.000301 s⁻¹; the kon was determined as 449000 M⁻¹ s⁻¹.

B7: Hu4-15 (antibody, V domains shown)
VH: B2 VH with M48I
VL: B2 VL
notes: Humanized 7G4 variant
Regarding B7, in the assay with human IFNAR1 ECD, the EC50 amounted to 2.84 ng/mL and the Top worked out at 3.46 OD450. In the assay with Human IFNAR1 SD1-SD4, binding was characterised by a dissociation constant (Kd) of 0.442 nM, the koff worked out at 0.000209 s⁻¹ and the kon turned out to be 472000 M⁻¹ s⁻¹.

B8: Hu4-6 (antibody, V domains shown)
VH: B2 VH
VL: B2 VL with N42K, S49Y
notes: Humanized 7G4 variant
With B8, the “EC50 (read off the curve)” value in assay [3] was roughly 0.06 µg/mL. In the assay with human IFNAR1 ECD, this molecule gave an EC50 of 3.21 ng/mL and a Top of 3.35 OD450. Further, the “EC50 (read off the curve)” value in assay [4] is roughly 0.04 µg/mL. In the assay with Human IFNAR1 SD1-SD4, the affinity, expressed as Kd, was 0.633 nM; the koff is 0.000281 s⁻¹; the kon was 444000 M⁻¹ s⁻¹.

B9: Hu4-16 (antibody, V domains shown)
VH: B2 VH with A40R, M48I
VL: B2 VL
notes: Humanized 7G4 variant
With B9, in the assay with human IFNAR1 ECD, a half-maximal response (EC50) required 3.15 ng/mL and the Top amounted to 3.31 OD450. Also, in the assay with Human IFNAR1 SD1-SD4, the Kd is 0.466 nM, the koff is 0.00021 s⁻¹ and the kon turned out to be 451000 M⁻¹ s⁻¹.

B10: IFNAR1 monoclonal antibody 10C2 (antibody, from another filing, V domains shown)
VH: QIQLVQSGPELKKPGETVKISCKASGYTFTNYGMNWVKQAPGKGLKWMGWINTYTGEPTYSDDFKGRFAFSLETSASTANLQINNLKDEDAATYFCAREGAIYYGDYVYFGVWGAGTTVTVSS
VL: DIVMTQSQKFMSTSVGDRVSITCKASQNVGTAVAWYQEKPGQSPKLLIYSASNRYTGVPDRFTGSGSGTAFTLTISNMQSEDLADYFCQQYYNYPLTFGAGTKLEVKR
In assay [2], B10 came in with a blocking effect on GFP expression induced by IFNα1 in IFN-I reporter cells (++ = greater than 80%) greater than 80%, a blocking effect on GFP expression induced by IFNα2a in IFN-I reporter cells (++ = greater than 80%) greater than 80%, a blocking effect on GFP expression induced by IFNα2b in IFN-I reporter cells (++ = greater than 80%) greater than 80% and a blocking effect on GFP expression induced by IFNα4 in IFN-I reporter cells (++ = greater than 80%) greater than 80%. In assay [2], this molecule registered a blocking effect on GFP expression induced by IFNα5 in IFN-I reporter cells (++ = greater than 80%) greater than 80%, a blocking effect on GFP expression induced by IFNα6 in IFN-I reporter cells (++ = greater than 80%) greater than 80%, a blocking effect on GFP expression induced by IFNα7 in IFN-I reporter cells (++ = greater than 80%) greater than 80% and a blocking effect on GFP expression induced by IFNα8 in IFN-I reporter cells (++ = greater than 80%) greater than 80%. In assay [2], this molecule returned a blocking effect on GFP expression induced by IFNα10 in IFN-I reporter cells (++ = greater than 80%) greater than 80%, a blocking effect on GFP expression induced by IFNα14 in IFN-I reporter cells (++ = greater than 80%) greater than 80%, a blocking effect on GFP expression induced by IFNα16 in IFN-I reporter cells (++ = greater than 80%) greater than 80% and a blocking effect on GFP expression induced by IFNα17 in IFN-I reporter cells (++ = greater than 80%) greater than 80%. In assay [2], this molecule registered a blocking effect on GFP expression induced by IFNα21 in IFN-I reporter cells (++ = greater than 80%) greater than 80%; a blocking effect on GFP expression induced by IFNω in IFN-I reporter cells (++ = greater than 80%) greater than 80%; a fold decrease in percentage of GFP positive reporter cells with serum from SLE patients of 3 fold; a percentage of GFP positive reporter cells with human IFNβ and 10 µg/mL antibody of 20%.

B11: 7G4 Chimeric (antibody, V domains shown)
VH: QVQLQQPGAELVKPGAPVKLSCKASGYTFTSYWMNWVRQRPGRGLEWIGKIDPSDSETHFNQKFRDKATLTVDKSSTTAYIQLSSLTSEDSAVYYCARGGRISFDYDAALDYWGQGTSVTVSS
VL: DILMTQSSSSFSVSLGDRVTITCKSSEVIYNRLAWFQQKPGNAPRLLISGATTLESGFPSRFSGSGSGKDYTLSITSLQIEDVSTYYCQQYWNKPFTFGSGTKLEVK
For B11, in the assay with human IFNAR1 ECD, the EC50 was 4.65 ng/mL and the Top amounted to 3.27 OD450. For the same molecule, the “EC50 (read off the curve)” value in assay [4] is roughly 0.04 µg/mL. In the assay with Human IFNAR1 SD1-SD4, this molecule displayed a Kd of 0.765 nM, a koff of 0.000349 s⁻¹ and a kon of 456000 M⁻¹ s⁻¹.
